Test results published in patent US20200317768A1 (published 2020).
Residue numbers refer to the chain shown, from its start. Names and notes keep the numbering of the source.

T1: cynomolgus monkey FcγRIIa1 extracellular domain, C-terminal His-tag (cynomolgus monkey)
T1 construct: also called cyno FcγRIIa1; cynoFcgRIIa1; not shown: His-tag added to C-terminus
T1 chain: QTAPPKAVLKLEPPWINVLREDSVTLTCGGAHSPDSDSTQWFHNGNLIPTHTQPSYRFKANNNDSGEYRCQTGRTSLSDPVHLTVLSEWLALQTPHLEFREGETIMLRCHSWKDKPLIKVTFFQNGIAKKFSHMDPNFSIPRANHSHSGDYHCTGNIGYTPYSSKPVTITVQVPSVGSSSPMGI

T2: human FcγRIIaH extracellular domain, C-terminal His-tag (human, UniProt P12318 34-217)
T2 construct: also called human FcγRIIa (type H); FcgRIIaH; not shown: His-tag added to C-terminus
T2 sequence: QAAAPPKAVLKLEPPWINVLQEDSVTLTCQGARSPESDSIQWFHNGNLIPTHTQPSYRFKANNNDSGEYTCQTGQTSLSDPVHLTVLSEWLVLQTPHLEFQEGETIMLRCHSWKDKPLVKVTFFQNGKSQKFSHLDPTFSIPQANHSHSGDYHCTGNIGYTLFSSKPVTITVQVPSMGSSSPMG

T3: cynomolgus monkey FcγRIIb extracellular domain, C-terminal His-tag (cynomolgus monkey)
T3 construct: also called cyno FcγRIIb; cynoFcγRIIb; not shown: His-tag added to C-terminus
T3 chain: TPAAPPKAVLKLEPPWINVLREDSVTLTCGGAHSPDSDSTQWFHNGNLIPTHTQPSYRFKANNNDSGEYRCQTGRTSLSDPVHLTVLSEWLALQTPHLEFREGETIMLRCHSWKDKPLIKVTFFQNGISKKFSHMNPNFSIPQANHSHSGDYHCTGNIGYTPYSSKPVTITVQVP

T4: human FcγRIIaR extracellular domain, C-terminal His-tag (human, UniProt P12318 34-217)
T4 construct: also called human FcγRIIa (type R); FcgRIIaR; not shown: His-tag added to C-terminus
T4 chain: T2 sequence with H134R

T5: human FcγRIIb extracellular domain, C-terminal His-tag (human, UniProt P31994 43-217)
T5 construct: also called humanFcgRIIb; not shown: His-tag added to C-terminus
T5 sequence: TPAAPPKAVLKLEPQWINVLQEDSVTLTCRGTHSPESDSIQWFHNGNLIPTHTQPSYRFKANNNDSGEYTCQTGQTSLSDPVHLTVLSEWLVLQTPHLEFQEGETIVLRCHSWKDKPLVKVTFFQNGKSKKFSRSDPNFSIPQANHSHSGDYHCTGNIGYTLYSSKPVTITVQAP

T6: cynomolgus monkey FcγRIIa2 extracellular domain, C-terminal His-tag (cynomolgus monkey)
T6 construct: also called cyno FcγRIIa2; cynoFcgRIIa2; not shown: His-tag added to C-terminus
T6 chain: T1 chain with P95T, T121A, I127K, A128S, K130N, D135N, R142Q

T7: cynomolgus monkey FcγRIIa3 extracellular domain, C-terminal His-tag (cynomolgus monkey)
T7 construct: also called cyno FcγRIIa3; cynoFcgRIIa3; not shown: His-tag added to C-terminus
T7 chain: T1 chain with P95T, T121A, A128S, H133P, D135N

B1: M103205H795-MY536 / M103202L889-SK1 (antibody, human IgG1, kappa)
heavy: QVTLKESGPVLVKPTETLTLTCTVSGIDLSHDDISWVRQAPGKGLEWVGIISYAGSTYYASWAKGRLTISKDTSKNQVVLTMTNMDPVDTATYYCARGVPAYSHGGDLWGQGTLVTVSSASTKGPSVFPLAPSSKSTSGGTAALGCLVKDYFPEPVTVSWNSGALTSGVHTFPAVLQSSGLYSLSSVVTVPSSSLGTQTYICNVNHKPSNTKVDKKVEPKSCDKTHTCPPCPGPEWLTGPVVFLFPPKPKDTLMISRTPEVTCVVVDVSDEDPEVKFNWYVDGVEVHNAKTKPREEQYNSTYRVVSVLTVLHQDWLNGKEYKCKVSNKALPKPIEKTISKAKGQPREPQVYTLPPSREEMTKNQVSLTCLVKGFYPSDIAVEWESNGQPENNYKTTPPVLDSDGSFFLYSKLTVDKSRWQQGNVFSCSVMHEALHNHYTQKSLSLSP
light: DIVMTQSPATLSLSPGERATLSCTSSQSVYHANWLSWFQQKPGQPPKLLIYWASTLAYGVPSRFSGSGSGTDFTLTISSLQPEDAATYYCAGGYGGGRYAFGQGTKVEIKRTVAAPSVFIFPPSDEQLKSGTASVVCLLNNFYPREAKVQWKVDNALQSGNSQESVTEQDSKDSTYSLSSTLTLSKADYEKHKVYACEVTHQGLSSPVTKSFNRGEC
B2: M103205H795-MY538 / M103202L889-SK1 (A231G/L234W/G236T/H268D/Q295L/A330K, as in Table 23B) (antibody, human IgG1, kappa)
heavy: B1 heavy with V241S, Q297L
light: B1 light
B3: M103205H795-MY537 / M103202L889-SK1 (antibody, human IgG1, kappa)
heavy: B1 heavy with Q297L
light: B1 light

The binders below were run against T8, human FcγRIIIaV extracellular domain, C-terminal His-tag (human, UniProt P08637 17-208) (assay: SPR (BIACORE); KD of SG1 / KD of variant;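 also: relative to parent M103205H795-SG1 carrying the SG1 human heavy chain constant region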).
T8 construct: also called FcgRIIIaV; not shown: His-tag added to C-terminus
Description: (§1) The kinetic analysis of interactions between these antibodies and FcγR was carried out using BIACORE® T200 or BIACORE® 4000 (GE Healthcare). HBS-EP+ (GE Healthcare) was used as the running buffer, and the measurement temperature was set to 25° C. A chip produced by immobilizing Protein A. Protein A/G or mouse anti-human IgG kappa light chain (BD Biosciences) onto a Series S Sensor Chip CM4 or CM5 (GE Healthcare) by the amine-coupling method was used. […] After the measurement, the antibody captured on the chip was washed off by allowing reaction with 10 mM glycine-HCl, pH1.5 and 25 mM NaOH so that the chip was regenerated and used repeatedly. The sensorgrams obtained as measurement results were analyzed by the 1:1 Langmuir binding model using the BIACORE® Evaluation Software to calculate the binding rate constant ka (L/mol/s) and dissociation rate constant kd (l/s), and the dissociation constant KD (mol/L) was calculated from these values. […] Regarding such interactions, KD values were calculated using the following 1:1 binding model described in BIACORE® T100 Software Handbook BR1006-48 Edition AE.
(§2) The behavior of interacting molecules according to the 1:1 binding model on BIACORE® can be described by Equation 1: Req=C·R max/(KD+C)+RI, wherein, Req is a plot of steady-state binding levels to analyte concentration. C is concentration, RI is bulk refractive index contribution in the sample, and Rmax is analyte binding capacity of the surface. When this equation is rearranged, KD can be expressed as Equation 2: KD=C·Rmax/(Req−RI)−C. KD can be calculated by substituting the values of Rmax, RI, and C into Equation 1 or Equation 2. From the current measurement conditions, RI=0, C=2 μmol/L can be used.

T8 sequence (P08637 17-208 F176V): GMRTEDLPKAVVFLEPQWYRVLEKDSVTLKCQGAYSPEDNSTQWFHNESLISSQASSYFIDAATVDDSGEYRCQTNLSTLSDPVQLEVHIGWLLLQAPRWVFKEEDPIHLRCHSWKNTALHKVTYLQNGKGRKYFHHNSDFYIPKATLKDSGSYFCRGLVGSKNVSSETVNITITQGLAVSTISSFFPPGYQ

| KD fold (SG1 = 1) [fold] | Binder |
| --- | --- |
| 0.3 | B1 |
| 0.14 | B2 |
| 0.25 | B3 |

Target: T1, cynomolgus monkey FcγRIIa1 …
Assay: SPR (BIACORE); KD of SG1 / KD of variant;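 also: relative to parent M103205H795-SG1 carrying the SG1 human heavy chain constant region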
Description: as §1, §2

| KD fold (SG1 = 1) [fold] | Binder |
| --- | --- |
| 2.7 | B1 |
| 3.3 | B2 |
| 2.7 | B3 |

Each binder was assayed against T2, human FcγRIIaH extracellular domain, … (assay: SPR (BIACORE); KD of SG1 / KD of variant;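 also: relative to parent M103205H795-SG1 carrying the SG1 human heavy chain constant region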).
Description: as §1, §2

| KD fold (SG1 = 1) [fold] | Binder |
| --- | --- |
| 2.4 | B1 |
| 2.8 | B2 |
| 2.5 | B3 |

Target: T3, cynomolgus monkey FcγRIIb extracellular …
Assay: SPR (BIACORE); KD of SG1 / KD of variant;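 also: relative to parent M103205H795-SG1 carrying the SG1 human heavy chain constant region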
Description: as §1, §2

| KD fold (SG1 = 1) [fold] | Binder |
| --- | --- |
| 4.5 | B1 |
| 6.4 | B2 |
| 3.6 | B3 |

Target: T4, human FcγRIIaR extracellular domain, …
Assay: SPR (BIACORE); KD of SG1 / KD of variant
Description: as §1, §2

| KD fold (SG1 = 1) [fold] | Binder |
| --- | --- |
| 5 | B1 |
| 1.8 | B2 |
| 3 | B3 |

These binders were tested against T5, human FcγRIIb extracellular domain, … (assay: SPR (BIACORE); KD of SG1 / KD of variant).
Description: as §1, §2

| KD fold (SG1 = 1) [fold] | Binder |
| --- | --- |
| 4.6 | B1 |
| 3.5 | B2 |
| 4.6 | B3 |

These binders were tested against T9, cynomolgus monkey FcγRIIIaS extracellular domain, C-terminal His-tag (cynomolgus monkey, UniProt A3RFZ7 21-206 (rhesus entry)) (assay: SPR (BIACORE); KD of SG1 / KD of variant).
T9 construct: also called cyno FcγRIIIaS; cynoFcγRIIIaS; not shown: His-tag added to C-terminus
Description: as §1, §2

T9 sequence (A3RFZ7 21-206): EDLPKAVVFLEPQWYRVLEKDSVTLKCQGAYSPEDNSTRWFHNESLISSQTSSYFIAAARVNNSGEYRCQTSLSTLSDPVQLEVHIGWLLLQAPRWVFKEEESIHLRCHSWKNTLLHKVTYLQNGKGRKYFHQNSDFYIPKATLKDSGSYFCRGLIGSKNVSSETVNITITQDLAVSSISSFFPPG

| KD fold (SG1 = 1) [fold] | Binder |
| --- | --- |
| 0.23 | B1 |
| 0.15 | B2 |
| 0.24 | B3 |

Target: T6, cynomolgus monkey FcγRIIa2 …
Assay: SPR (BIACORE); KD of SG1 / KD of variant
Description: as §1, §2

| KD fold (SG1 = 1) [fold] | Binder |
| --- | --- |
| 4.6 | B1 |
| 4.6 | B2 |
| 4.6 | B3 |

Target: T7, cynomolgus monkey FcγRIIa3 …
Assay: SPR (BIACORE); KD of SG1 / KD of variant
Description: as §1, §2

| KD fold (SG1 = 1) [fold] | Binder |
| --- | --- |
| 17.3 | B1 |
| 5.7 | B2 |
| 12.1 | B3 |
